The source of these data is patent US20140329275A1, “BIOCATALYSIS CELLS AND METHODS” (REGENTS OF THE UNIVERSITY OF MINNESOTA, priority 2011, published 2014).

Substrate in the data set: CC(C)CC=O
The data set can be described thus: Enzymatic assay of PadA. The class given is biochemical, E. coli. The conditions noted are these: other: 0.5 mM NAD+, pH 8.0, 25 nM PadA. Here is the method: Protein concentration was measured by UV absorbance at 280 nm. […] Enzymatic reactions were initiated by adding 25 nM PadA. The reactions were monitored by measuring the UV absorbance at 340 nm (extinction coefficient, 6.22 mM^−1 cm^−1) as a consequence of NADH generation.

B1: PadA (Escherichia coli K-12) (protein)
chain: MTEPHVAVLSQVQQFLDRQHGLYIDGRPGPAQSEKRLAIFDPATGQEIASTADANEADVDNAVMSAWRAFVSRRWAGRLPAERERILLRFADLVEQHSEELAQLETLEQGKSIAISRAFEVGCTLNWMRYTAGLTTKIAGKTLDLSIPLPQGARYQAWTRKEPVGVVAGIVPWNFPLMIGMWKVMPALAAGCSIVIKPSETTPLTMLRVAELASEAGIPDGVFNVVTGSGAVCGAALTSHPHVAKISFTGSTATGKGIARTAADHLTRVTLELGGKNPAIVLKDADPQWVIEGLMTGSFLNQGQVCAASSRIYIEAPLFDTLVSGFEQAVKSLQVGPGMSPVAQINPLVSRAHCDKVCSFLDDAQAQQAELIRGSNGPAGEGYYVAPTLVVNPDAKLRLTREEVFGPVVNLVRVADGEEALQLANDTEYGLTASVWTQNLSQALEYSDRLQAGTVWVNSHTLIDANLPFGGMKQSGTGRDFGPDWLDGWCETKSVCVRY
notes: made in house
As a reminder, the Km is the substrate concentration at which the rate is half of its maximum. Usually kcat stands for the maximal rate divided by the concentration of active sites. Turning to B1, the Km was 1946 µM and the kcat came out at 18.6 s⁻¹.
